In patent US20250188189A1 (published 2025):
Where a chain is given by its changes, count along the chain named.

T1: plasma-derived human activated protein C (APC) (UniProt P04070 43-461)
T1 chain: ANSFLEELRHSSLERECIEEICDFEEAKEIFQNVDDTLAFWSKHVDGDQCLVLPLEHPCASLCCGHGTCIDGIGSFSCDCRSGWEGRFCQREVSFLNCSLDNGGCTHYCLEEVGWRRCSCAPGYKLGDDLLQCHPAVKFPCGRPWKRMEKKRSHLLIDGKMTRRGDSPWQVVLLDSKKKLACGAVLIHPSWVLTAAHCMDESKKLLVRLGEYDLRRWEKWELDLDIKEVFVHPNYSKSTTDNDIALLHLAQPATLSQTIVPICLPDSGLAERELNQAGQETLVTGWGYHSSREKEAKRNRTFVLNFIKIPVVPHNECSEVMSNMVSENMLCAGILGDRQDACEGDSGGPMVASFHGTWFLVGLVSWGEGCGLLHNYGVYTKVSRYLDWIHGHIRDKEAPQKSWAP

B1: TPP-24727 (antibody, V domains shown)
VH: EVQLVESGGGLVQPGGSLRLSCAASGFTFSNYYLNWVRQAPGKGLEWVGDIRLKSNNYEKHYAESVKGRFTISRDDSKNSLYLQMNSLKTEDTAVYYCAREGDYFDYWGQGTLVTVSS
VL: DIVLTQSPASLAVSPGQRATITCKASESVDSFGATFMHWYQQKPGQPPKLLIYLASNLESGVPARFSGSGSGTDFTLTINPVEADDTANYYCQQNNEDPYTFGQGTKLEIKR
B2: TPP-26870 (antibody, V domains shown)
VH: EVQLVESGGGLVQPGGSLRLSCAASGFTFSNYYMNWVRQAPGKGLEWVSYISSSSSTIYYADSVKGRFTISRDDSKNSLYLQMNSLKTEDTAVYYCAREGDYFDYWGQGTLVTVSS
VL: EIVLTQSPGTLSLSPGERATLSCRASQSVSSFGATFMHWYQQKPGQPPKLLIYLASNRASGVPDRFSGSGSGTDFTLKISRVEAEDVGVYYCQQNNEDPYTFGQGTKLEIKR
B3: TPP-24740 (antibody, V domains shown)
VH: B1 VH with L34M, N35S
B4: TPP-24744 (antibody, V domains shown)
VH: B1 VH with L34I
B5: TPP-24738 (antibody, V domains shown)
VH: EVQLVESGGGLVQPGGSLRLSCAASGFTFSNYYMNWVRQAPGKGLEWVGRIKSKTDGGTTDYAAPVKGRFTISRDDSKNSLYLQMNSLKTEDTAVYYCAREGDYFDYWGQGTLVTVSS
B6: TPP-24766 (antibody, V domains shown)
VH: B5 VH with Y32A, N35S
B7: TPP-24750 (antibody, V domains shown)
VH: B5 VH with M34I, N35S
B8: TPP-24739 (antibody, V domains shown)
VH: EVQLVESGGGLVQPGGSLRLSCAASGFTFSNYYMNWVRQAPGQGLEWMGRIIPILGIANYAQKFQGRFTISRDDSKNSLYLQMNSLKTEDTAVYYCAREGDYFDYWGQGTLVTVSS
B9: TPP-24743 (antibody, V domains shown)
VH: B8 VH with N35S
B10: TPP-24737 (antibody, V domains shown)
VH: B2 VH
B11: TPP-24745 (antibody, V domains shown)
VH: B2 VH with M34I
B12: TPP-24777 (antibody, V domains shown)
VH: B2 VH with N31S, M34L
B13: hAPC (enzyme)
chain: T1 chain

Target: T1, plasma-derived human activated protein …
Experiment: SPR

Row | Kd | Binder
1 | 18.7 nM | B1
2 | 12.9 nM | B2

Target: T1, plasma-derived human activated protein …
Experiment: SPR
Remark: another data set of the same source

Row | Kd | Binder
3 | 60.5 nM | B3
4 | 44.8 nM | B1
5 | 22.8 nM | B4
6 | 1.81 nM | B5
7 | 29700 nM | B6
8 | 13200 nM | B7
9 | 0.737 nM | B8
10 | 0.174 nM | B9
11 | 12.5 nM | B10
12 | 76.4 nM | B11
13 | 31.4 nM | B12

Target: T1, plasma-derived human activated protein …
Experiment: SPR
Remark: another data set of the same source

Row | Kd | Binder
14 | 44.8 nM | B1

Target: T1, plasma-derived human activated protein …
Experiment: SPR; head prints nM; kd/ka gives M

Row | Kd | Binder
15 | 40 nM | B2

These binders were tested against TPP-29862 (assay: SPR; head prints nM; kd/ka gives M).

Row | Kd | Binder
16 | 11 nM | B13
